In patent US20150344570A1 (published 2015):

T1: FcγRIIb extracellular domain with C-terminal His tag (human, UniProt P31994 43-217)
T1 construct: extracellular domain; also called FcgRIIb; 2b
T1 sequence (looked up): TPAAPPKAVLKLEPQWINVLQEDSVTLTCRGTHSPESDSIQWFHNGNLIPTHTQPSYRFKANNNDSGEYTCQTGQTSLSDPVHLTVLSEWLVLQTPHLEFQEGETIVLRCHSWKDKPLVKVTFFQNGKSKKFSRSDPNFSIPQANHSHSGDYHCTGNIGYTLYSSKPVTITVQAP

T2: FcγRIIa R (human, UniProt P12318 34-217)
T2 construct: extracellular domain; also called FcgRIIa R type; 2aR
T2 sequence (looked up): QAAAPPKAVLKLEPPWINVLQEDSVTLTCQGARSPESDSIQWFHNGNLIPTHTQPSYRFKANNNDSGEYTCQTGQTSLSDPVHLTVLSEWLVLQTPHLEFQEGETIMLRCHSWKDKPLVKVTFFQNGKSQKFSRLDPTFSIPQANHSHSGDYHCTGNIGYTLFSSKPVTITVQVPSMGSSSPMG

B1: GpH7-B3 variant G237_02A/GpL16-k0 (antibody, human IgG1, kappa)
heavy: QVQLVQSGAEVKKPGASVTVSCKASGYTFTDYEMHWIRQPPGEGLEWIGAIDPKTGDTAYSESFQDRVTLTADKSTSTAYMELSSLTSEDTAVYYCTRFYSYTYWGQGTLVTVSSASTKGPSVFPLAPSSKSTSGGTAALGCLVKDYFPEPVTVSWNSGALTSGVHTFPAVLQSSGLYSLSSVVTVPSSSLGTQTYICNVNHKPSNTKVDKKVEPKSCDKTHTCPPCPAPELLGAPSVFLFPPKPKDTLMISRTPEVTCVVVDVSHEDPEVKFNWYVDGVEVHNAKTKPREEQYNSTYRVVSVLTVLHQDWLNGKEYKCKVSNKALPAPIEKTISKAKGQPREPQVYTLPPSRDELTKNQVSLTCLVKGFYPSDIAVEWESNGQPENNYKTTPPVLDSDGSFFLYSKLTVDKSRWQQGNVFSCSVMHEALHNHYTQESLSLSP
light: DIVMTQSPLSLPVTPGEPASISCQASESLVHSNRNTYLHWYLQKPGQSPQLLIYKVSNRFSGVPDRFSGSGSGTDFTLKISRVEAEDVGVYYCSQNTHVPPTFGQGTKVEIERTVAAPSVFIFPPSDEQLKSGTASVVCLLNNFYPREAKVQWKVDNALQSGNSQESVTEQDSKDSTYSLSSTLTLSKADYEKHKVYACEVTHQGLSSPVTKSFNRGEC
notes: also called Ho Ab G237_02A
B2: GpH7-A5/GpH7-B3 variant P271_08L/GpL16-k0 (antibody, human IgG1, kappa)
heavy 1: not shown
heavy 2: not shown
light: B1 light
notes: also called He Ab P271_08L
B3: GpH7-A5/GpH7-B3 variant P238_03V/GpL16-k0 (antibody, human IgG1, kappa)
heavy 1: not shown
heavy 2: not shown
light: B1 light
notes: also called He Ab P238_03V
B4: GpH7-B3 variant L328_02A/GpL16-k0 (antibody, human IgG1, kappa)
heavy: not shown
light: B1 light
notes: also called Ho Ab L328_02A
B5: GpH7-B3 variant N325_01G/GpL16-k0 (antibody, human IgG1, kappa)
heavy: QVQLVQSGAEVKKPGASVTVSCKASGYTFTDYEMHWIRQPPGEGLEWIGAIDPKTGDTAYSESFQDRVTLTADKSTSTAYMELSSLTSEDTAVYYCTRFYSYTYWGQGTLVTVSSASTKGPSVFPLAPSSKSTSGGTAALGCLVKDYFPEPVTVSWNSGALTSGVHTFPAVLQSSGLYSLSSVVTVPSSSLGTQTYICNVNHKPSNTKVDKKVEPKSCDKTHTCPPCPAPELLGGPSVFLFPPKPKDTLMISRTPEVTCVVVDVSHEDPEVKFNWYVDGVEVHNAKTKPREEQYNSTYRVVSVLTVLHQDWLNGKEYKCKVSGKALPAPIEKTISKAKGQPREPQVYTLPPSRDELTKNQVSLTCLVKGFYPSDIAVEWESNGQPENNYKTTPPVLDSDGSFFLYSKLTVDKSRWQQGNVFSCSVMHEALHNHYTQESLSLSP
light: B1 light
notes: also called Ho Ab N325_01G
B6: GpH7-B3 variant L328_13S/GpL16-k0 (antibody, human IgG1, kappa)
heavy: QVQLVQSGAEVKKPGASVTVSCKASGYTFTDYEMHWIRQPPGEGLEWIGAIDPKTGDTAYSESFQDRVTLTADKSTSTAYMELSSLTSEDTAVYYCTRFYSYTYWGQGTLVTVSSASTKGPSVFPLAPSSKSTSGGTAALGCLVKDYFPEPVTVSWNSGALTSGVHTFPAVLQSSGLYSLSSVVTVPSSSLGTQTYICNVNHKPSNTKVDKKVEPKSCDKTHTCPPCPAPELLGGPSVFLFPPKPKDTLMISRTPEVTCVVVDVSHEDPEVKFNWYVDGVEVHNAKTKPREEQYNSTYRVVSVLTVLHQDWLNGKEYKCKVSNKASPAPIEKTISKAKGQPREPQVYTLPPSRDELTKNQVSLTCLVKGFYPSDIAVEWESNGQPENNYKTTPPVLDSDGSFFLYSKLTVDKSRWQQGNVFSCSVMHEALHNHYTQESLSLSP
light: B1 light
notes: also called Ho Ab L328_13S
B7: GpH7-B3 variant K326_20W/GpL16-k0 (antibody, human IgG1, kappa)
heavy: not shown
light: B1 light
notes: also called Ho Ab K326_20W
B8: GpH7-A5/GpH7-B3 variant P271_10E/GpL16-k0 (antibody, human IgG1, kappa)
heavy 1: not shown
heavy 2: not shown
light: B1 light
notes: also called He Ab P271_10E
B9: GpH7-A5/GpH7-B3 variant P238_09D/GpL16-k0 (antibody, human IgG1, kappa)
heavy 1: not shown
heavy 2: not shown
light: B1 light
notes: also called He Ab P238_09D
B10: GpH7-B3 variant H268_05P/GpL16-k0 (antibody, human IgG1, kappa)
heavy: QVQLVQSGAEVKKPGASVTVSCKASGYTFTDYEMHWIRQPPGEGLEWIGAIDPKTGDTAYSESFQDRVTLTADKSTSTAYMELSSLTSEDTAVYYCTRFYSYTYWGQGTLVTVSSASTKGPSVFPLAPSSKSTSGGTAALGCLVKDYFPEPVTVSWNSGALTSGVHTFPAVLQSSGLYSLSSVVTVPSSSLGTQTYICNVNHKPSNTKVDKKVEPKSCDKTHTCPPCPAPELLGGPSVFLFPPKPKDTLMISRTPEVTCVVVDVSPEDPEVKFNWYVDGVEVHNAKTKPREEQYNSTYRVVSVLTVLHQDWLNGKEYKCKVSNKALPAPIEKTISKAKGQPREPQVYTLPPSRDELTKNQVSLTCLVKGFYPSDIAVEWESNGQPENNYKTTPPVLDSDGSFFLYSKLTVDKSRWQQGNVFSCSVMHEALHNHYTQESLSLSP
light: B1 light
notes: also called Ho Ab H268_05P
B11: GpH7-B3 variant G237_18N/GpL16-k0 (antibody, human IgG1, kappa)
heavy: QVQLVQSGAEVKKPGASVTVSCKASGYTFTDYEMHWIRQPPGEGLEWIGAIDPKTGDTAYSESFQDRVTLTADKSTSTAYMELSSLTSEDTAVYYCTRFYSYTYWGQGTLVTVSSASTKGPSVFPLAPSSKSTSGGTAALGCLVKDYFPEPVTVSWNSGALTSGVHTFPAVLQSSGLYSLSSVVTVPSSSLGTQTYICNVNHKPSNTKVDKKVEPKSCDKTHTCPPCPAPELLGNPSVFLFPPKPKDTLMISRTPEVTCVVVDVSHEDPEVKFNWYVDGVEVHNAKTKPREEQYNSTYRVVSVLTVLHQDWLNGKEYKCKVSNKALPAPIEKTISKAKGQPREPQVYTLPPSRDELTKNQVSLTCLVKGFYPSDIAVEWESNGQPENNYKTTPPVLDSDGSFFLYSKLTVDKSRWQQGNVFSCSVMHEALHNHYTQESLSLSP
light: B1 light
notes: also called Ho Ab G237_18N
B12: GpH7-B3 variant A327_07I/GpL16-k0 (antibody, human IgG1, kappa)
heavy: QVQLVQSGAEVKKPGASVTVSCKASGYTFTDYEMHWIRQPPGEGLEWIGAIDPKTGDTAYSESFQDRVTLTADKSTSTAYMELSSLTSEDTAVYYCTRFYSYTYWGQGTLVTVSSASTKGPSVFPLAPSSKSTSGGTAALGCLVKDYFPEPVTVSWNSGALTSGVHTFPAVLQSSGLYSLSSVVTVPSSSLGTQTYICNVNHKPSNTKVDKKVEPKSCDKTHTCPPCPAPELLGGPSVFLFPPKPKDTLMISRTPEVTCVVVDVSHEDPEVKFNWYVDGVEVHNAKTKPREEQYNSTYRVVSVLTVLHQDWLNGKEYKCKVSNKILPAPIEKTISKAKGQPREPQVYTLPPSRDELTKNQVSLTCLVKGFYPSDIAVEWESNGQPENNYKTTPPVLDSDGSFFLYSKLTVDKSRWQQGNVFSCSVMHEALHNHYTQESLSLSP
light: B1 light
notes: also called Ho Ab A327_07I
B13: GpH7-B3 variant K326_08L/GpL16-k0 (antibody, human IgG1, kappa)
heavy: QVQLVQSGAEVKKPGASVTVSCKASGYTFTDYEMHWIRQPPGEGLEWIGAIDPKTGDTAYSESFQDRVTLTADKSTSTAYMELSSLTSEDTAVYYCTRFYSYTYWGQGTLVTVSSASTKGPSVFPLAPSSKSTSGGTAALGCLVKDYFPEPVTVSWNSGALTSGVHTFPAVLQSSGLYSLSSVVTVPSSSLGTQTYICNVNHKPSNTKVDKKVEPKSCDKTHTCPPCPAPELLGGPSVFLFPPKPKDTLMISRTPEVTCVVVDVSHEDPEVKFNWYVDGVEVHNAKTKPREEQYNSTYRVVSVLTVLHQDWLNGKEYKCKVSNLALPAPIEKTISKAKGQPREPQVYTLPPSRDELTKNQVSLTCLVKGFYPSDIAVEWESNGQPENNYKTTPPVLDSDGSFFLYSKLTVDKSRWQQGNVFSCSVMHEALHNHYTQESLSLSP
light: B1 light
notes: also called Ho Ab K326_08L
B14: GpH7-A5/GpH7-B3 variant P238_15Y/GpL16-k0 (antibody, human IgG1, kappa)
heavy 1: not shown
heavy 2: not shown
light: B1 light
notes: also called He Ab P238_15Y
B15: GpH7-A5/GpH7-B3 variant P238_10E/GpL16-k0 (antibody, human IgG1, kappa)
heavy 1: not shown
heavy 2: not shown
light: B1 light
notes: also called He Ab P238_10E
B16: GpH7-A5/GpH7-B3 variant P331_03V/GpL16-k0 (antibody, human IgG1, kappa)
heavy 1: not shown
heavy 2: not shown
light: B1 light
notes: also called He Ab P331_03V
B17: GpH7-B3 variant H268_03V/GpL16-k0 (antibody, human IgG1, kappa)
heavy: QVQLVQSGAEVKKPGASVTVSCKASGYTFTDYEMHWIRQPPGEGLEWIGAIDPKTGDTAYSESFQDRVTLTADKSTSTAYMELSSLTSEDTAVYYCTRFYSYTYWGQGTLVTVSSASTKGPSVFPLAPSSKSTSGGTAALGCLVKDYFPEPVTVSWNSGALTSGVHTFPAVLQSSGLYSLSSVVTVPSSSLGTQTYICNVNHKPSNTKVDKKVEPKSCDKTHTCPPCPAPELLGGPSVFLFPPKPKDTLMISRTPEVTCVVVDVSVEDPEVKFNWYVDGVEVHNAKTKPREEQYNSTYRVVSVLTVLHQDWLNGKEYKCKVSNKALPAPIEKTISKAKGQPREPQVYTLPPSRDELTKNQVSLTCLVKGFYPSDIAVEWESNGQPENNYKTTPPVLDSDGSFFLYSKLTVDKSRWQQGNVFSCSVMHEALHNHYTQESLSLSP
light: B1 light
notes: also called Ho Ab H268_03V
B18: GpH7-A5/GpH7-B3 variant N325_20W/GpL16-k0 (antibody, human IgG1, kappa)
heavy 1: not shown
heavy 2: not shown
light: B1 light
notes: also called He Ab N325_20W
B19: GpH7-B3 variant L328_09D/GpL16-k0 (antibody, human IgG1, kappa)
heavy: not shown
light: B1 light
notes: also called Ho Ab L328_09D
B20: GpH7-A5/GpH7-B3 variant P238_20W/GpL16-k0 (antibody, human IgG1, kappa)
heavy 1: not shown
heavy 2: not shown
light: B1 light
notes: also called He Ab P238_20W
B21: GpH7-B3 variant I332_14T/GpL16-k0 (antibody, human IgG1, kappa)
heavy: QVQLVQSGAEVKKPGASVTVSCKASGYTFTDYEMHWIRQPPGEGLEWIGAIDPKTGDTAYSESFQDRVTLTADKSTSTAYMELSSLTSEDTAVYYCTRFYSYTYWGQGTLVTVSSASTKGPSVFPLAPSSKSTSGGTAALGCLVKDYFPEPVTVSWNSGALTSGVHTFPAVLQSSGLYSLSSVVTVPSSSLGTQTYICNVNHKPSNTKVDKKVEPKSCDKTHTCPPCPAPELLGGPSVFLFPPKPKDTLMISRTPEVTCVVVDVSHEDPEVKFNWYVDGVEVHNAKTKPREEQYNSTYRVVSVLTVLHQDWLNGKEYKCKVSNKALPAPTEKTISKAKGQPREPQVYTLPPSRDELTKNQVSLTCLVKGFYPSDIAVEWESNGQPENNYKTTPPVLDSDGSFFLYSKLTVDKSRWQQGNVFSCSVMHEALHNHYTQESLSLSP
light: B1 light
notes: also called Ho Ab I332_14T
B22: GpH7-A5/GpH7-B3 variant P238_06M/GpL16-k0 (antibody, human IgG1, kappa)
heavy 1: not shown
heavy 2: not shown
light: B1 light
notes: also called He Ab P238_06M
B23: GpH7-A5/GpH7-B3 variant P331_02A/GpL16-k0 (antibody, human IgG1, kappa)
heavy 1: not shown
heavy 2: not shown
light: B1 light
notes: also called He Ab P331_02A
B24: GpH7-A5/GpH7-B3 variant P271_09D/GpL16-k0 (antibody, human IgG1, kappa)
heavy 1: not shown
heavy 2: not shown
light: B1 light
notes: also called He Ab P271_09D
B25: GpH7-B3 variant G237_19Q/GpL16-k0 (antibody, human IgG1, kappa)
heavy: not shown
light: B1 light
notes: also called Ho Ab G237_19Q
B26: GpH7-B3 variant L235_04F/GpL16-k0 (antibody, human IgG1, kappa)
heavy: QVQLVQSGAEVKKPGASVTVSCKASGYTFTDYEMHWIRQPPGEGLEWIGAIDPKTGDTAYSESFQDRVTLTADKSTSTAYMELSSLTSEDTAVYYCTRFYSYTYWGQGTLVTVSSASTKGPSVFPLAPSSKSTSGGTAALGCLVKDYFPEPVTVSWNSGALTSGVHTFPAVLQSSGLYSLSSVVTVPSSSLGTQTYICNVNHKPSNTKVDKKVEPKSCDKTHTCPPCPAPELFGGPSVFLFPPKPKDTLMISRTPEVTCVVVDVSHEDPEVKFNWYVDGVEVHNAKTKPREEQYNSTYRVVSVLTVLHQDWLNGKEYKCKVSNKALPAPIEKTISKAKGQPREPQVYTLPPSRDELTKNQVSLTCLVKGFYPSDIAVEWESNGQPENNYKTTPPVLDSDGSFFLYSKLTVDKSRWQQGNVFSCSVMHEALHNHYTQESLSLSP
light: B1 light
notes: also called Ho Ab L235_04F
B27: GpH7-B3 variant I336_06M/GpL16-k0 (antibody, human IgG1, kappa)
heavy: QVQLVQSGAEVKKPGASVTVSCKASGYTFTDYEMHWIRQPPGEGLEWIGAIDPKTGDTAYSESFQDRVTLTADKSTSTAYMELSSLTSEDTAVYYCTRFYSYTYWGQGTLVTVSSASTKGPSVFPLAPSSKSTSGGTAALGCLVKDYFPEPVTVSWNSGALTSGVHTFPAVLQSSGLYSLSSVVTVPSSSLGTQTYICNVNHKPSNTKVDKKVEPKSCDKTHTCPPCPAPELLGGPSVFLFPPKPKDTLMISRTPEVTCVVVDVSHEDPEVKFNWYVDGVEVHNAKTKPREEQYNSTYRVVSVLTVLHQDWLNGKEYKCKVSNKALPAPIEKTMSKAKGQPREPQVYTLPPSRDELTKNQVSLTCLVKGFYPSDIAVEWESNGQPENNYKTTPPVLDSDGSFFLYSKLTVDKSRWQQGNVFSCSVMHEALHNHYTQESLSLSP
light: B1 light
notes: also called Ho Ab I336_06M

Experiments:
[1] = molecular target: T1, FcγRIIb extracellular domain with …; test: SPR (Biacore), relative binding
Protocol: Analysis of interaction between objective antibody and the FcγR was carried out using Biacore T100 (GE Healthcare). HBS-EP+ (GE Healthcare) was used as the running buffer, and the measurement temperature was set to 25° C. Chips produced by immobilizing the antigen peptide by the amine coupling method to a Series S Sencor Chip CM5 (GE Healthcare), or alternatively, chips produced by allowing preliminarily biotinylated antigen peptides to interact with and immobilize onto a Series S Sensor Chip SA (certified) (GE Healthcare) were used. Antibodies of interest were captured onto an antigen peptide-immobilized chip, and allowed to interact to each FcγR diluted with running buffer. To regenerate and repeatedly use the chip, the antibodies captured on the chip were washed off by reacting 10 mM glycine-HCl, pH 1.5.

[2] = molecular target: T2, FcγRIIa R; test: SPR (Biacore), captured antibody, FcγR as analyte; relative binding activity

Row | Binder | Ho/Con_2b [1] | He/Con_2aR [2]
1 | B1 | 47.8 % of HoCon Ab GpH7-B3/GpL16-k0 | 
2 | B2 |  | 104 % (GpH7-A5/GpH7-B3/GpL16-k0 = 100)
3 | B3 |  | 120 % (GpH7-A5/GpH7-B3/GpL16-k0 = 100)
4 | B4 | 117 % of HoCon Ab GpH7-B3/GpL16-k0 | 
5 | B5 | 20.2 % of HoCon Ab GpH7-B3/GpL16-k0 | 
6 | B6 | 147 % of HoCon Ab GpH7-B3/GpL16-k0 | 
7 | B7 | 132 % of HoCon Ab GpH7-B3/GpL16-k0 | 
8 | B8 |  | 103 % (GpH7-A5/GpH7-B3/GpL16-k0 = 100)
9 | B9 |  | 148 % (GpH7-A5/GpH7-B3/GpL16-k0 = 100)
10 | B10 | 109 % of HoCon Ab GpH7-B3/GpL16-k0 | 
11 | B11 | 63.9 % of HoCon Ab GpH7-B3/GpL16-k0 | 
12 | B12 | 37.6 % of HoCon Ab GpH7-B3/GpL16-k0 | 
13 | B13 | 168 % of HoCon Ab GpH7-B3/GpL16-k0 | 
14 | B14 |  | 156 % (GpH7-A5/GpH7-B3/GpL16-k0 = 100)
15 | B15 |  | 151 % (GpH7-A5/GpH7-B3/GpL16-k0 = 100)
16 | B16 |  | 114 % (GpH7-A5/GpH7-B3/GpL16-k0 = 100)
17 | B17 | 109 % of HoCon Ab GpH7-B3/GpL16-k0 | 
18 | B18 |  | 134 % (GpH7-A5/GpH7-B3/GpL16-k0 = 100)
19 | B19 | 159 % of HoCon Ab GpH7-B3/GpL16-k0 | 
20 | B20 |  | 117 % (GpH7-A5/GpH7-B3/GpL16-k0 = 100)
21 | B21 | 106 % of HoCon Ab GpH7-B3/GpL16-k0 | 
22 | B22 |  | 139 % (GpH7-A5/GpH7-B3/GpL16-k0 = 100)
23 | B23 |  | 106 % (GpH7-A5/GpH7-B3/GpL16-k0 = 100)
24 | B24 |  | 110 % (GpH7-A5/GpH7-B3/GpL16-k0 = 100)
25 | B25 | 5.3 % of HoCon Ab GpH7-B3/GpL16-k0 | 
26 | B26 | 111 % of HoCon Ab GpH7-B3/GpL16-k0 | 
27 | B27 | 90.1 % of HoCon Ab GpH7-B3/GpL16-k0 | 
